Our source for the protein production values is a protein production outcome set (Wang et al. 2014).

This data set is described as follows: label from the status in PepcDB records.

Take “MEKVVTLNHDLPLLHFPNSRKPFSIPSPILRISSFKRHKKRSCLASSSRLGFYTETKTVSESHGVIVDNSTIGRRLLGLAAAVSVAVSLSIFCDSPALAESLTIAFPVSRAREVIETMVEMFPLRSADAAYGKLKAMLSTLGDPFTRLITPKEYQSFRIGSDGNLQGVGLFINSEPRTGHLVSDQTHLETQISLVFGLFVHFLSMNPADRAGIHEGEELVEINGEKLDDVDSEAAAQKLRGRVGTFVTIKLKNVLFGTDSGIREVTVTAVSVRCVKLPRDYIKLSPISSAIIPHTTPDGRLAKTGYVKLTAFSQTAASDMENAVHEMENQDVQSYILDLRNNPLLAIPYQGGLVRAGLDVAQLWLDGDETLVYTIDREGVTSPINMINGHAVTHDPLVVLVNEGSASASEILAGALHDNGRAILVGNRTFGKGKIQSITELNDGSALFVTVAKYLSPSLHEIDQVGIAPDVQCTTGMIDSLTAEIVEKMNSSVPLLEADSCVMVAEHELEARRSNGTAS”: the protein production entry is recorded as “failed”. Turning to “MELFEFLLIKYGYIALILILTGGIVGLPIPDEVLLTLVGYYISLGKMSYVLALLASFLGATLGISISYFLGTKLGLPFLMKYGPKFHISHQKIDHAQALFRKYGPILLFIGYFLPGVRHVTGYLSGLSKCKFRTFSLYAYTGAFIWCLVFITLGHEIGNKWYIVEKYLFKSSFLLFLLILCVIGYFIVRNKRMEKNAEKK”, the protein production entry was “failed”. Next, “MELFGSFAFFGGALFGGLGLLLYRALGLPWRLGYRHLIGALCLAVWLAVFWTRPYQPLGLLAVASAALWAMRRGYLPTWAAVLLTMAPLLLLKCGITTMTGMLGLSFATFRAVDVLLFAPRNERISPLDYCIYLFFPLTLLAGPMYRWRNFQADLKRGYEGVTLETWLAGLELLIFGVIQKFGVAEAIWRYGLNTLDAHDYSLTGVALNASLYSFYLFFDFAGYSSMAIGVGMLFGFTLPVNFRNPLASANPQDFWRRWHISLSEWLRDVVFMPIYKALSKTAFFGRHRLAAQNIGILATLLAMGVWNGLALHYVVSGLMFGAYSVGHNLLVQHARTRPALQAFLARRPVQWAGRALTLILAALALYVFSGRSPI”: “failed”; “MELIVPILAAAYLAVLLVKTAAALWVVRGERLRPARSAVATPADVAILQPILGGDAHLQEVLAANVQALPQAQFIWLLDTDDGPGNAAADAVVAQYPQLRIARMLVPPAPPGINPKAWKLDYALPHIDAPVSLILDDDAHLGDRALSQLLLDLAHADVVTALPYYRDSATLAGRLLAQFVNNNAALTYLGWLPFAAPLTINGMCYAARTEQLRRWGGFTALLEQLTDDLAFATLVRDRGGRLWQSTAPVAMRTDMPDLRGYVRQMHRWMLFASILLGRQRLRVRSAIGVLQGLPPVLLLAMLVCACVQHTWPAALCVLIVLLARALLLCGVQWRVTGAVRHRLLLSLCAECLQPLHLLHAALVRTIRWRTRRYRVLPDGCFRAE”: “failed”; “MELLCIDYLGKPLRLEGTMAGWQQLFWDNILVAQRPAQEQYEGDIQHHFQLTQGEHVLECCLEIALTWQPFQLQYQTKLNGELVAQGMRSEKDVERQTPYEAPKVERRFSVIGLVSLAMKALKSAKMIKVVMASASLAAYSWLFSFQFALALIGCLVFHEYGHVRAMKYFGMKTKGIYLVPFLGGLALSDEKINTRWQDVVISIMGPCFGFLLSLLLVGVYWVTDSPFWAALAVFNAFLNLFNLLPVLPLDGGHILKSVSFSMNSKMGVILCVLAILGGIALSYSLGLTLFGFLLLMGALDIVFEWRQRHHSHLLPLNRYAQMVSTIWYFALVSGLIAIIIGFASTGDTLLSLPLLILGT”: “failed”. “MELLKLNRSVQGTGPGPGASLCRPGAPLLNSSSVGNLSCEPPRIRGAGTRELELAIRITLYAVIFLMSVGGNMLIIVVLGLSRRLRTVTNAFLLSLAVSDLLLAVACMPFTLLPNLMGTFIFGTVICKAVSYLMGVSVSVSTLSLVAIALERYSAICRPLQARVWQTRSHAARVIVATWLLSGLLMVPYPVYTVVQPVGPRVLQCVHRWPSARVRQTWSVLLLLLLFFIPGVVMAVAYGLISRELYLGLRFDGDSDSDSQSRVRNQGGLPGGAGPREQNLGEADVWRATGPAGVGGTEMKVRVRRKLEMELSWERRSGGDWAGDWGDSPFSLTAHPLCSGAVHQNGRCRPETGAVGEDSDGCYVQLPRSRPALELTALTAPGPGSGSRPTQAKLLAKKRVVRMLLVIVVLFFLCWLPVYSANTWRAFDGPGAHRALSGAPISFIHLLSYASACVNPLVYCFMHRRFRQACLETCARCCPRPPRARPRALPDEDPPTPSIASLSRLSYTTISTLGPG”: the protein production result was “failed”. As for “MELLLSKVTDAGIDPSSVSGEEAITLWEHIGRHIASTSREKAHCLIISAEYRREIKQLCDSIEELRQALELLSLPEDVEDILSVKASLSERLVEVGDYNSALTEYIASTNIAVEYGFIDEYVLAIIGMGNLCDAYGDHNRALRYYQKIDAIDHAISSRSLRLRYKLYMLACYISLKRVAEASELLGECEELSILVSDKNLAAQTHLYRAKLHRLQEEYSEALLSISSIKYTTGSATTYWLSTMVKIETAYCLNGVGHTSLANLLLESIGKRIKKHSSPILAKRFYNAMSKVSASQGQFQQALSCEKRAFRIESDLIKHIPISELGAAQLRRLSRFELQLKLILSEIENKELKETTKQHKNTVAQLQQDVFTDPLTSLHNRRWLEVKLKDMLLHDTPFALMVIDIDHFKSINDELSHLVGDKAIKSVSQELAAYFKFKGASCVRFGGEEFLVILENSQLERAEMHAENYRERIFKYAWRDILGERGLTVSIGITLHREGENTQRTFYRADKALYRAKANGRNQVCTEL”, the protein production result was “failed”. The result for “MELLNVLAAAFGAFALGSVWYMVLAEPWMQDAKVPRGPDGRPEGGMTPGIFAASFVLQLIVAGMMRHVFALSGIDSPGAGIVAGIGVGLFFIAPWITLNNLYGMRPLRLSLIDGGYATLACAVMGLILTLF” reads “failed”; that for “MELQDTIFKRQSVRKFKNQDVSDEDILKMIKAAGAAPSGKNIQNWHFVVIKRRDLMEKIADVITKKQQEILVEMDKVSVDKANRFRKFVKNFTLFYLKAPVLVLVFTKVYNPSGYYELELIDAPKETIDKLFIRNPGMQSLGAAIENFTLSAIELGYGSCWLTSQNYAADEIEAVLEAETGFEKGEYFLGAMLALGVPEDNLKSPSKKPVEEICTFIK”, “not failed”; that for “MELRDRIDFLCKTILAIKTAGRLVLGIDGLSRSGKTTLANQLSQTLREQGISVCVFHMDDHIVERAKRYHTGNEEWFEYYYLQWDVEWLTHQLFRQLKASHQLTLPFYDHETDTHSKRTVYLSDSDMIMIEGVFLQRKEWRPFFDFVVYLDCPREIRFARENDQVKQNIQKFINRYWKAEDYYLETEEPIKRADVVFDMTS”, “not failed”.

“MELRPSGDSGSSDVDAEISDGFSPLDTSHRDVADEGSLLRRAEMYQDYMKQVPIPTNRGSLIPFTSWVGLSISMKQLYGQPLHYLTNVLLQRWDQSRFGTDSEEQRLDSIIHPTKAEATIWLVEEIHRLTPSHLHMALLWRSDPMYHSFIDPIFPEK”: the protein production entry is “not failed”.

As for “MELSAVGERVFAAESIIKRRIRKGRIEYLVKWKGWAIKYSTWEPEENILDSRLIAAFEQKERERELYGPKKRGPKPKTFLLKARAQAEALRISDVHFSVKPSASASSPKLHSSAAVHRLKKDIRRCHRMSRRPLPRPDPQGGSPGLRPPISPFSETVRIINRKVKPREPKRNRIILNLKVIDKGAGGGGAGQGAGALARPKVPSRNRVIGKSKKFSESVLRTQIRHMKFGAFALYKPPPAPLVAPSPGKAEASAPGPGLLLAAPAAPYDARSSGSSGCPSPTPQSSDPDDTPPKLLPETVSPSAPSWREPEVLDLSLPPESAATSKRAPPEVTAAAGPAPPTAPEPAGASSEPEAGDWRPEMSPCSNVVVTDVTSNLLTVTIKEFCNPEDFEKVAAGVAGAAGGGGSIGASK”, the protein production result is recorded as “failed”. As to “MELSRGASAPDPDDVRPLKPCLLRRNHSRDQHGVAASSLEELRSKACELLAIDKSLTPITLVLAEDGTIVDDDDYFLCLPSNTKFVALACNEKWTYNDSDGGTAWVSQESFEADEPDSRAGVKWKNVARQLKEDLSSIILLSEEDLQALIDIPCAELAQELCQSCATVQGLQSTLQQVLDQREEARQSKQLLELYLQALEKEGNILSNQKESKAALSEELDAVDTGVGREMASEVLLRSQILTTLKEKPAPELSLSSQDLESVSKEDPKALAVALSWDIRKAETVQQACTTELALRLQQVQSLHSLRNLSARRSPLPGEPQRPKRAKRDSS”, the protein production result is listed as “not failed”. The result for “MELTTDIGGRSAAGVDRAPAGATSRTALWTGRVLSGLAIAFLAFDALGKLMRAAPVLEGSQQLGYPLDTVVGIGATLLACVVLYAIPRTAALGAILLTGYLGGAVATHVRVGNPLFSHVLFPTYVGALIWGGLVLRDRRLLAALLRGRARAAEEEA” reads “failed”; that for “MELWLVRHGETLWNREGRLLGWTDLPLTAEGEAQARRLKGALPSLPAFSSDLLRARRTAELAGFSPRLYPELREIHFGALEGALWETLDPRYKEALLRFQGFHPPGGESLSAFQERVFRFLEGLKAPAVLFTHGGVVRAVLRALGEDGLVPPGSAVAVDWPRRVLVRLALDGEEATG”, “not failed”. Next, “MENFDEVIKEYQKYLEGKEKTHKINSCKHPCCEEDNLKSVKNYFKVYHKKYIPSIIQKKKKERNEHAPPLLKDIQDKRCTNVFERLNDKQFYTGVQKTKFMELLKNNKNKSSYCYNNIKVFSTMLKKPCNYVVTPGTLGIQKYGIQTGRPKTIFLFNNEKKYDKGVYFLVKSYIKNIKSLCYEITKILQPSIGPTRKIYDQNFSLVRNVNDLINGGKYLCTSGDPPAPIRNLSLHFLT”: “failed”; “MENGFFVKINYRIYTTFSEKHGIILSIISKKENPMAIYFGTYTKRESKGIYKANFDSETGQLSNLELVTEEPNPTYLAFDKAGHLYSVGAENGLGGIAAFNTDYTLLNHVVSEGAPLCYVAVDEARDLVYGSNFHKGQLLVYKRLADGSLELADVAQHEGSGPHENQASAHVHFSDLTPDKFLVTCDLGCDQVVTYKVSDQGKVEKIATYQAAPGSGPRHIVFHTVAKIAYLICELNSTIEVLIYDGWGQFEHLQTVSTLPEDHTGFNGTAAIRITKDGKFIYGSNRGNDSIAVYKTLADASLELVEIVPTNGKTPRDFTLSPDEKHLIVVHQDSDNATVFKRDAENGCLTELSHDFYVPEAVCVTFL”: “failed”; “MENHSHANTHTDTRTDDKSTKIVRLLGLIGGALIALVIYYALNSQMPHIVEEIPKLSSLNYKAMPVVAGVAVLMGIWWMTEAIDLPATALLPLVLFSVFSVDQFASVSSSYASPIIFLFMGGFILALSMQKWNLHTRIALSIILLVGTSPRRLILGFMMATGFLSMWVSNTATAVMMLPVGMSVLQLVAKLVGKEDASNSWHQKEEITKAHGGIMSNIVHKGKDITQVIQEKTTIYRTNFSICLMLGIAYAASIGSLGTLIGTPPNALLAGYMKTAFNIEIDFAQWMVFGTPLAFIMLILAWLLLTYVIFPLKIKEIPGGKEVIRVELKKLGRLSQAEISVGIIFILASLGWIFLGVMLKSWGVKIDKIDSVIAMGVSALLFILPANHQGDRLIDWGVAKKLPWDVLLLFGGGLALSAQFSKTGLSLWIGHLVSGFSHLPILFIIVMVTLMVIFLTEITSNTATAAAFLPVIGGVAMGMGYENHQSLLLTIPVALSATCAFMLPVVTPPNAIAYGSGYVKITDMIKAGLWLNLVGVVLISTFSYFLVSLIFN”: “failed”.

As for “MENKKMNLLLFSGDYDKALASLIIANAAREMEIEVTIFCAFWGLLLLRDPEKASQEDKSLYEQAFSSLTPREAEELPLSKMNLGGIGKKMLLEMMKEEKAPKLSDLLSGARKKEVKFYACQLSVEIMGFKKEELFPEVQIMDVKEYLKNALESDLQLFI”, the protein production entry is “not failed”.
